Biological target: T1, HemN-like radical SAM enzyme Swoo_2002 (Shewanella woodyi ATCC 51908, UniProt B1KQP7 1-448)
T1 construct: Swoo_2002, HemN-like radical SAM enzyme (counterpart of C10P) from a cryptic biosynthetic gene cluster of Shewanella woodyi ATCC 51908; The enzyme carries one [4Fe-4S] cluster per polypeptide after anaerobic reconstitution; also called C10P surrogate; c10P counterpart; source: E. coli Rosetta(DE3) (strain E. coli RoTB-SW), purified (Ni-NTA, desalination column)
T1 sequence (looked up): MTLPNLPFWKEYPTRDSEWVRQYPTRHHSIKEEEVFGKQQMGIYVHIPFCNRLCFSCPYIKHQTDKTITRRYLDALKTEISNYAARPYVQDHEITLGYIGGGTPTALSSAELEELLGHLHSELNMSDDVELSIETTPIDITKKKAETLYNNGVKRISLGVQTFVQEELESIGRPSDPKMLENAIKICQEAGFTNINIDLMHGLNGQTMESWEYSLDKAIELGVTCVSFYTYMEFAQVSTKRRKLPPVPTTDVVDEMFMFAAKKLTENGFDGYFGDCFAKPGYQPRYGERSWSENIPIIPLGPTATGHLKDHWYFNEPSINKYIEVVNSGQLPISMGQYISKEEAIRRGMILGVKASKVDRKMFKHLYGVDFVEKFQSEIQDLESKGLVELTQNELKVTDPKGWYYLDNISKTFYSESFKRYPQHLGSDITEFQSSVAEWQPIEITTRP
Test: ITC; 600 μM C10Q titrated into 200 μL of 60 μM Swoo_2002; PBS buffer pH 7.4 (after desalination, no glycerol, less than 5‰ DMSO); Malvern MicroCal ITC200
Settings: both partners purified

Kd: 8 µM
B1: methyltransferase C10Q (enzyme, Streptomyces zelensis NRRL 11183, UniProt A0A1W6EUU7 1-234, looked up)
chain: MTTEAPLLDLAERVPLDRPHGDIEAVRAYDLGMRRSALMAYKRPTERILAAYREGMTDFVDIGFNTGLLSLHVAGRLPDVAVSGVEEFPHLVDVAEDNLTLGVWANMAGDVEFEQSKLSRLPFPDDSADIVYSFSSLHRWRRPVETLREAARVCKPDGTVLIEDVNRLAEEGHITFILQFVKEGGDQFMRSLKAAYSLDQARDLLREAGLDDWHVVEEDLGLVISNRPVTPVSM
notes: SAM-dependent methyltransferase C10Q of the CC-1065 biosynthetic gene cluster, Streptomyces zelensis NRRL 11183; cloned from total DNA by 'similar procedures' as the intact c10P gene; source: E. coli Rosetta(DE3) (strain E. coli Ro37-Q), purified (Ni-NTA, desalination column)

Source: PMC6050322, “A radical S-adenosyl-L-methionine enzyme and a methyltransferase catalyze cyclopropane formation in natural product biosynthesis” (Nature Communications, 2018)
